Results taken from article PMC12846707.

How the values were obtained:
[1] = target: Recombinant C4b β chain (pig); experiment: SPR; Biacore 8K, single-cycle; C4bα and C4bβ covalently immobilised on CM5 chip (about 1500 RU); CR1-like fragments or mutant as mobile phase, 1.56 × 10^-2 to 4 μM; 25 °C; 10 mM HEPES pH 7.4, 150 mM NaCl, 0.05% Tween-20; apparent KD = kd/ka
[2] = target: Recombinant C4b α chain (pig); experiment: as above

Kd [1]: 1200 nM
Kd [2]: 271 nM
Substance: 118I mutant of CR1-like CCPs 1-3 (domain or fragment)
